In PMC11531469, “Molecular mechanism of parental H3/H4 recycling at a replication fork” (Nature Communications, 2024):

Columns and labels:
Conditions in all cases: both partners purified
histone H3/H4 tetramer [1] = target: T1, histone H3/H4 tetramer (UniProt P61830 1-136; P02309 1-103); experiment: native gel or EMSA; 0.5 uM Cdc45-7HIS mixed with 0-2 uM H3/H4 tetramer, 15 min at 30 °C; 25 mM HEPES-KOH pH 7.5, 1 mM EDTA, 10% glycerol, 0.05% Tween 20, 150 mM KCl; loss of the free Cdc45 band on 5-20% Tris-Glycine gel, Coomassie; apparent
histone H3/H4 tetramer [2] = target: T1, histone H3/H4 tetramer; experiment: native gel or EMSA; 0.5 uM Cdc45-7HIS mixed with 0-2 uM H3/H4 tetramer, 15 min at 30 °C; 25 mM HEPES-KOH pH 7.5, 1 mM EDTA, 10% glycerol, 0.05% Tween 20, 300 mM KCl; loss of the free Cdc45 band on 5-20% Tris-Glycine gel, Coomassie; apparent
histone H3/H4 tetramer [3] = target: T1, histone H3/H4 tetramer; experiment: native gel or EMSA; 0.5 uM Cdc45-7HIS mixed with 0-2 uM H3/H4 tetramer, 15 min at 30 °C; 25 mM HEPES-KOH pH 7.5, 1 mM EDTA, 10% glycerol, 0.05% Tween 20, 750 mM KCl; loss of the free Cdc45 band on 5-20% Tris-Glycine gel, Coomassie; apparent

B1: Cdc45-7HIS (budding yeast Cdc45, wild type) (natural protein)
chain: ISQFSEAYNKILRNSSSHSSCQLVIFVSCLNIDALCATKMLSLLFKKQLVQSQIVPIFGYSELRRHYSQLDDNINSLLLVGFGGVIDLEAFLEIDPQEYVIDTDEKSGEQSFRRDIYVLDAHRPWNLDNIFGSQIIQCFDDGTVDDTLGEQKEAYYKLLELDEESGDDELSGDENDNNGGDDEATDADEVTDEDEEDEDETISNKRGNSSIGPNDLSKRKQRKKQIHEYEGVLEEYYSQGTTVVNSISAQIYSLLSAIGETNLSNLWLNILGTTSLDIAYAQVYNRLYPLLQDEVKRLTPSSRNSVKTPDTLTLNIQPDYYLFLLRHSSLYDSFYYSNYVNAKLSLWNENGKKRLHKMFARMGIPLSTAQETWLYMDHSIKRELGIIFDKNLDRYGLQDIIRDGFVRTLGYRGSISASEFVEALTALLEVGNSTDKDSVKINNDNNDDTDGEEEEDNSAQKLTNLRKRWVSNFWLSWDALDDRKVELLNRGIQLAQDLQRAIFNTGVAILEKKLIKHLRIYRLCVLQDGPDLDLYRNPLTLLRLGNWLIECCAESEDKQLLPMVLASIDENTDTYLVAGLTPRYPRGLDTIHTKKPILNNFSMAFQQITAETDAKVRIDNFESSIIEIRREDLSPFLEKLTLSGLL
notes: Cdc45, budding yeast; also called WT; source: Escherichia coli, purified
For B1, the Kd (histone H3/H4 tetramer [1]) was 68 nM, the Kd (histone H3/H4 tetramer [2]) was 90 nM and the Kd (histone H3/H4 tetramer [3]) was 216 nM.
